Reference: PMC11894533, “A virulent milRNA of Fusarium oxysporum f. sp. cubense impairs plant resistance by targeting banana AP2 transcription factor coding gene MaPTI6L”

Target: MaPTI6L (Musa acuminata (Cavendish group cv. …, UniProt A0A804I776 1-300))
Experiment: EMSA; EMSA Kit (Beyotime) protocol; buffer, salt, pH and temperature not stated
Settings: protein: recombinant; tags: MBP; label: FAM

Sequence of MaPTI6L (Musa acuminata (A0A804I776 entry or part of it): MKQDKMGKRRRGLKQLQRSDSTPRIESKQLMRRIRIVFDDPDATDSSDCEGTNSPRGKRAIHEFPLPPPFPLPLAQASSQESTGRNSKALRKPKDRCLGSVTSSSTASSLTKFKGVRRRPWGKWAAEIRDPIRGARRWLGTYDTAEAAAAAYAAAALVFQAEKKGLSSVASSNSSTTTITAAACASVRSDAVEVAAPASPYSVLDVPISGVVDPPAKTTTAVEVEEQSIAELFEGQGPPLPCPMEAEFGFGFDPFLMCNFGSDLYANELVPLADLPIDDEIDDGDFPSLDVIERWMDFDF

B1: MaEDS1 promoter GCC-box mutant probe (dsDNA)
DNA 1: CCAACTCCTCCTCTCTCTGGACAAAAAACACAAACTCGTCTTGAAAACTCCGCGACAAA
DNA 2: TTTGTCGCGGAGTTTTCAAGACGAGTTTGTGTTTTTTGTCCAGAGAGAGGAGGAGTTGG
  binding result: no binding
